Source: patent publication US20190321456A1 (NATIONAL HEALTH RESEARCH INSTITUTES, published 2019)

T1: recombinant ovalbumin (OVA) (Gallus gallus (Chicken), UniProt P01012 1-386)
T1 sequence: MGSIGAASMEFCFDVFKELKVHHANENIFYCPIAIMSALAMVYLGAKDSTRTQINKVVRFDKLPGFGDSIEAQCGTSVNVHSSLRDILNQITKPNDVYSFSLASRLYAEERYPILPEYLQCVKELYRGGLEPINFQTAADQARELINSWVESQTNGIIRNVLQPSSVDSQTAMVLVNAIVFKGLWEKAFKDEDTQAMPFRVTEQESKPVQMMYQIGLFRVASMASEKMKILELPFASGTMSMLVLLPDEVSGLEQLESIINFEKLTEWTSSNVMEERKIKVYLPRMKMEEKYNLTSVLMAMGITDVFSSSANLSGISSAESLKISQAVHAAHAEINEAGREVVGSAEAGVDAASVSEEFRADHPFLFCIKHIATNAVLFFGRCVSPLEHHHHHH

B1: OVA-FLIPr fusion protein (other)
chain: MGSIGAASMEFCFDVFKELKVHHANENIFYCPIAIMSALAMVYLGAKDSTRTQINKVVRFDKLPGFGDSIEAQCGTSVNVHSSLRDILNQITKPNDVYSFSLASRLYAEERYPILPEYLQCVKELYRGGLEPINFQTAADQARELINSWVESQTNGIIRNVLQPSSVDSQTAMVLVNAIVFKGLWEKAFKDEDTQAMPFRVTEQESKPVQMMYQIGLFRVASMASEKMKILELPFASGTMSMLVLLPDEVSGLEQLESIINFEKLTEWTSSNVMEERKIKVYLPRMKMEEKYNLTSVLMAMGITDVFSSSANLSGISSAESLKISQAVHAAHAEINEAGREVVGSAEAGVDAASVSEEFRADHPFLFCIKHIATNAVLFFGRCVSPGGGGSGGGGSGGGGSFFSYEWKGLEIAKNLADQAKKDDERIDKLMKESDKNLTPYKAETVNDLYLIVKKLSQGDVKKAVVRIKDGGPRDYYTFDLTRPLEENRKNIKVVKNGEIDSIYWDLEHHHHHH
notes: Expressed in E. coli from pET-22b(+) and purified by IMAC; also called recombinant OVA-FLIPr fusion protein
B2: biotin-conjugated recombinant FcγRI (receptor)
chain: QVDTTKAVITLQPPWVSVFQEETVTLHCEVLHLPGSSSTQWFLNGTATQTSTPSYRITSASVNDSGEYRCQRGLSGRSDPIQLEIHRGWLLLQVSSRVFTEGEPLALRCHAWKDKLVYNVLYYRNGKAFKFFHWNSNLTILKTNISHNGTYHCSGMGKHRYTSAGISVTVKELFPAPVLNASVTSPLLEGNLVTLSCETKLLLQRPGLQLYFSFYMGSKTLRGRNTSSEYQILTARREDSGLYWCEAATEDGNVLKRSPELELQVLGLQLPTP
modifications: biotin-conjugated
B3: OVA-FLIPr-like fusion protein (other)
chain: MGSIGAASMEFCFDVFKELKVHHANENIFYCPIAIMSALAMVYLGAKDSTRTQINKVVRFDKLPGFGDSIEAQCGTSVNVHSSLRDILNQITKPNDVYSFSLASRLYAEERYPILPEYLQCVKELYRGGLEPINFQTAADQARELINSWVESQTNGIIRNVLQPSSVDSQTAMVLVNAIVFKGLWEKAFKDEDTQAMPFRVTEQESKPVQMMYQIGLFRVASMASEKMKILELPFASGTMSMLVLLPDEVSGLEQLESIINFEKLTEWTSSNVMEERKIKVYLPRMKMEEKYNLTSVLMAMGITDVFSSSANLSGISSAESLKISQAVHAAHAEINEAGREVVGSAEAGVDAASVSEEFRADHPFLFCIKHIATNAVLFFGRCVSPGGGGSGGGGSGGGGSFFSYEWKGLEIAKNLADQAKKDDERADKLIKEADEKNEHYKGKTVEDLYVIAKKMGKGNTIAVVKIKDGGKNGYYTFDITRPLEEHRKNIPVVKNGEIDSITWYLEHHHHHH
notes: Expressed in E. coli from pET-22b(+) and purified by IMAC; also called recombinant OVA-FLIPr-like fusion protein
B4: biotin-conjugated recombinant FcγRIIb (receptor)
chain: APPKAVLKLEPQWINVLQEDSVTLTCRGTHSPESDSIQWFHNGNLIPTHTQPSYRFKANNNDSGEYTCQTGQTSLSDPVHLTVLSEWLVLQTPHLEFQEGETIVLRCHSWKDKPLVKVTFFQNGKSKKFSRSDPNFSIPQANHSHSGDYHCTGNIGYTLYSSKPVTITVQAP
modifications: biotin-conjugated
B5: biotin-conjugated recombinant FcγRIIa-H131 (receptor)
chain: AAPPKAVLKLEPPWINVLQEDSVTLTCQGARSPESDSIQWFHNGNLIPTHTQPSYRFKANNNDSGEYTCQTGQTSLSDPVHLTVLSEWLVLQTPHLEFQEGETIMLRCHSWKDKPLVKVTFFQNGKSQKFSHLDPTFSIPQANHSHSGDYHCTGNIGYTLFSSKPVTITVQVPSMGSSSPMGI
modifications: biotin-conjugated
notes: The H131 allotype name implies the human receptor

Assays:
[1] = target: B5; test: ELISA, coated fusion protein, biotin-conjugated FcγR in solution
[2] = target: T2, biotin-conjugated recombinant FcγRIIIa-V158 (UniProt P08637 17-208); test: as above
T2 construct: The V158 allotype name implies the human receptor
T2 sequence (P08637 17-208 F176V limits assumed): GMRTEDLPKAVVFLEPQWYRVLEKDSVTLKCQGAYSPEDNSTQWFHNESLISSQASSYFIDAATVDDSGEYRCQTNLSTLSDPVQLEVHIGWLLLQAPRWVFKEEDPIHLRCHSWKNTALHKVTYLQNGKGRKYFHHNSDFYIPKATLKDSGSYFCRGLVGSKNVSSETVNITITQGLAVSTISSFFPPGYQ

[3] = target: T3, biotin-conjugated recombinant FcγRIIIa-F158 (UniProt P08637 17-208, biotin-conjugated); test: as above
T3 construct: The F158 allotype name implies the human receptor
T3 sequence (P08637 17-208 limits assumed): as the sequence (P08637 17-208 F176V limits assumed) above, with V160F counted along it

[4] = target: T1, recombinant ovalbumin (OVA); test: ELISA, plate coated with recombinant protein at 1 µg/mL, serial dilution of biotin-conjugated FcγR, streptavidin-HRP

| Binder | binding result [1] | binding result [2] | binding result [3] | binding result [4] |
| --- | --- | --- | --- | --- |
| B1 | binds | binds | binds | – |
| B2 | – | – | – | no binding |
| B3 | binds | binds | binds | – |
| B4 | – | – | – | no binding |
| B5 | – | – | – | no binding |
